# Test results reported in PMC2955292 (Chemistry & biology, 2010).
# B1: ClpA: AAA+ family ATPase that assembles into hexameric rings and binds ClpP (protein)
# chain: MLNQELELSLNMAFARAREHRHEFMTVEHLLLALLSNPSAREALEACSVDLVALRQELEAFIEQTTPVLPASEEERDTQPTLSFQRVLQRAVFHVQSSGRNEVTGANVLVAIFSEQESQAAYLLRKHEVSRLDVVNFISHGTRKDEPTQSSDPGSQPNSEEQAGGEERMENFTTNLNQLARVGGIDPLIGREKELERAIQVLCRRRKNNPLLVGESGVGKTAIAEGLAWRIVQGDVPEVMADCTIYSLDIGSLLAGTKYRGDFEKRFKALLKQLEQDTNSILFIDEIHTIIGAGAASGGQVDAANLIKPLLSSGKIRVIGSTTYQEFSNIFEKDRALARRFQKIDITEPSIEETVQIINGLKPKYEAHHDVRYTAKAVRAAVELAVKYINDRHLPDKAIDVIDEAGARARLMPVSKRKKTVNVADIESVVARIARIPEKSVSQSDRDTLKNLGDRLKMLVFGQDKAIEALTEAIKMARAGLGHEHKPVGSFLFAGPTGVGKTEVTVQLSKALGIELLRFDMSEYMERHTVSRLIGAPPGYVGFDQGGLLTDAVIKHPHAVLLLDEIEKAHPDVFNILLQVMDNGTLTDNNGRKADFRNVVLVMTTNAGVRETERKSIGLIHQDNSTDAMEEIKKIFTPEFRNRLDNIIWFDHLSTDVIHQVVDKFIVELQVQLDQKGVSLEVSQEARNWLAEKGYDRAMGARPMARVIQDNLKKPLANELLFGSLVDGGQVTVALDKEKNELTYGFQSAQKHKAEAAH
# Target: E. coli ClpP (Escherichia coli, UniProt P0A6G7)
# Details: Figure S1A; SDS-PAGE
# E. coli ClpP, sequence (P0A6G7 15-207): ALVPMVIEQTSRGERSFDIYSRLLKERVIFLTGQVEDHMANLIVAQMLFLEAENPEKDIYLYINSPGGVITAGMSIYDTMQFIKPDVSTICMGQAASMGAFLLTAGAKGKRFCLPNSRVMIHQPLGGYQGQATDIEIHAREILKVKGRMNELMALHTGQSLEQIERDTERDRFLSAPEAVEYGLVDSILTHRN
molecule,measurement,value
B1,pattern of β-casein degradation products (processivity),promoted processive degradation of β-casein
